The results in this text go back to patent US12514920B1, “Respiratory syncytial virus mRNA vaccine, and preparation method therefor and use thereof” (Hangzhou Tianlong Pharmaceutical Co., Ltd., priority 2024, dated 2026).

Data set [1] has as its system RSV pre-F antibody (3C12). The data set can be described thus: Binding of epitope Φ of RSV F antigen mutants by flow cytometry. The settings on record: for RSV pre-F antibody (3C12) Epitope Φ (%) binding rate: flow cytometry; for Φ/II (%): ratio of epitope Φ (3C12) to epitope II (11A9) binding rate. The source says: (§1) To investigate whether the RSV F antigen mutants have pre-fusion epitopes, an RSV pre-F antibody (3C12) (specifically binding to the RSV pre-F epitope […]) and an RSV F antibody (11A9) (binding to pre-F and post-F epitopes II) were detected by flow cytometry in this example, and RSV F protein mutants in the pre-F conformation were expected to bind to the antibodies tested.
(§2) • 293T cells (purchased from ATCC cell bank); RSV pre-F antibody (3C12), epitope […] (Novoprotein, Cat. No.: DA101); RSV F antibody (11A9), epitope II (Novoprotein, Cat. No.: DA091); • experimental groups: mRNA vaccines corresponding to the expressed antigens in Example 3;
(§3) • (1) Cell transfection: 293T cells were seeded at 1.3×10^5 cells/well in a 24-well plate. The next day, mRNA-LNP samples (containing 300 ng of mRNA) were added directly to the cells, and the mixture was uniformly mixed. • (2) Cell collection: The cells were taken out of the incubator after 16 h of transfection, the medium was pipetted off, 500 μL of 0.1% BSA solution was pipetted to wash the medium remaining in the well plate, taking care not to resuspend the cells, and the 0.1% BSA solution was pipetted off. 500 μL of 0.1% BSA solution was added to each well, and the cells were pipetted and transferred to a 1.5 mL centrifuge tube. • (3) Centrifugation: The cells were harvested by centrifugation at 400 g for 5 min at 4° C. in the dark, and the supernatant was discarded. • (4) Straining: 50.6 μL of RSV fluorescent antibody diluent was added to each of the control sample and the test samples to resuspend the cells, and the samples were incubated at 4° C. for 2 h in the dark. • (5) Cleaning: After the incubation was completed, 500 μL of 0.1% BSA solution was added to each tube, the cells were harvested by centrifugation at 400 g for 5 min at 4° C. in the dark, and the supernatant was discarded. This operation was repeated three times. • (6) Resuspension of cells: 200 μL of 0.1% BSA solution was added to each sample, and the cells were carefully pipetted to prepare a cell suspension. • (7) Detection on flow cytometer: The […] of RSV F mutants to antibodies were measured using flow cytometry, with 1×10^4 cells detected in each measurement.
(§4) The RSV pre-F antibody (3C12) used in this example specifically binds to the RSV pre-F epitope Φ, and the RSV F antibody (11A9) binds to the pre-F and post-F epitopes II. Whether the pre-fusion conformations of the RSV F mutants are stable can be further determined by detecting the binding of the epitope Φ and the epitope II on the mutants to corresponding epitopes of antibodies 3C12 and 11A9, respectively, by flow cytometry.
(A flow cytometer gives signals particle by particle.)

For data set [2], the system named is RSV pre-F antibody (3C12). The class given is physicochemical. The settings on record: ELISA binding to 3C12; for Stress resistance parameter, Osmotic pressure (mM) 3000: high osmotic pressure 3000 mM; for Stress resistance parameter, Osmotic pressure (mM) 3000 / Stress resistance parameter, Osmotic pressure (mM) 10: room temperature; for Stress resistance parameter, Osmotic pressure (mM) 3000 / Stress resistance parameter, Osmotic pressure (mM) 10 / Stress resistance parameter, pH 3.5 / Stress resistance parameter, pH 10: 60 min; for Stress resistance parameter, Temperature (° C.) 50: incubation at 50° C. for 60 min; for Stress resistance parameter, Osmotic pressure (mM) 10: low osmotic pressure 10 mM; for Stress resistance parameter, pH 3.5: pH 3.5, room temperature; for Stress resistance parameter, pH 10: pH 10, room temperature; for Stress resistance parameter, Temperature (° C.) 4: storage at 4° C. for one week. From the text:
To investigate the stability of the RSV F antigen mutants under different pH, temperature, osmotic pressure and other conditions, the mutants were subjected to stress tests under different treatment conditions in this example.
• 293T cells (purchased from ATCC cell bank); • Primary antibody: RSV pre-F antibody (3C12), epitope Φ (purchased from Suzhou Novoprotein Scientific Co., Ltd. (hereinafter referred to as Novoprotein), Cat. No.: DA101); • Standard: RSV pre-F trimer protein (Novoprotein, Cat. No.: DRA230); • Secondary antibody: peroxidase AffiniPure goat anti-human IgG (H+L) (purchased from Yeasen Biotechnology (Shanghai) Co., Ltd. (hereinafter referred to as Yeasen), Cat. No.: N/A); • Experimental group: mRNA vaccines after screening in Example 4;
Coating: A 96-well microplate was coated with a working solution and incubated at 2 to 8° C. for 16 to 20 h.
Plate washing: Phosphate buffered saline PBST was added to each well, and the plate was washed 5 times using a plate washer and patted dry on absorbent paper.
Blocking: After a blocking solution was added, the […] were placed on a constant temperature microplate shaker and incubated at 400 rpm for 1.5 h at 37° C.
Plate washing: PBST was added to each well, and the plate was washed 5 times using a plate washer and patted dry on absorbent paper.
Primary antibody incubation: A primary antibody dilution was added to each well, and the plate was sealed with a sealing film, and then incubated at 400 rpm for 1.5 h at 37° C.
Secondary antibody incubation: A secondary antibody dilution was added to each well, and the plate was sealed with a sealing film, and then incubated at 400 rpm for 45 min at 37° C.
Color development: A chromogenic solution was added, and the plate was sealed with a sealing film, and then placed on a constant temperature microplate shaker and incubated at 400 rpm for 25 min at 37° C.
Reaction stopping: After the color development was completed, a stop buffer was added at […] to the microplate to stop the reaction.
Plate reading: Absorbance values (OD values) were read within 5 min using a multimode microplate reader, with dual wavelengths of 450 nm and 630 nm set.
In this example, stability screening of the mutants through different treatment conditions was defined as a stress test, including storage at 4° C. for one week; incubation at 50° C. for 60 min; treatment at room temperature under low osmotic pressure and high osmotic pressure conditions for 60 min; treatment at room temperature under acid and base conditions for 60 min. The binding of the mutants to the RSV pre-F antibody (3C12) recognizing the epitope Φ was detected by ELISA.
(ELISA stands for enzyme-linked immunosorbent assay.)

For a further data set, the system named is RSV F antibody (11A9). The data set can be described thus: Binding of epitope II of RSV F antigen mutants by flow cytometry. The settings on record: epitope II, antibody 11A9.
Excerpt: as §1, §2, §3, §4

B1: YK-RSV-004 (protein)
chain: QNITEEFYQSTCSAVSKGYLGALRTGWYTSVITIELSNIKENKCNGTDAKVKLIKQELDKYKNAVTDLQLLMQSTPATGSGSAICSGVAVCKVLHLEGEVNKIKSALLSTNKAVVSLSNGVSVLTIKVLDLKNYIDKQLLPIVNKQSCPISNIETVIEFQQKNNRLLEITREFSVNAGVTTPVSTYMLTNSELLSLINDMPITNDQKKLMSNNVQIVRQQSYSIMCIIKEEVLAYVVQLPLYGVIDTPCWKLHTSPLCTTNTKEGSNICLTRTDRGWYCDNAGSVSFFPQAETCKVQSNRVFCDTMNSRTLPSEVNLCNVDIFNPKYDCKIMTSKTDVSSSVITSLGAIVSCYGKTKCTASNKNRGIIKTFSNGCDYVSNKGVDTVSVGNTLYCVNKQEGQSLYVKGEPIINFYDPLVFPSSEFDASISQVNEKINQSLAFIRKSDELLHNVNAGKSTTNIMITTIIIVIIVILLSLIAVGLLLY
Take B1: in data set [1], the “RSV pre-F antibody (3C12) Epitope Φ (%) binding rate” value amounted to 82.1% and the “Φ/II (%)” value is on record as 91.1%. In data set [2], the “Stress resistance parameter, Osmotic pressure (mM) 3000” value stood at 0.46 ± 0.13; the “Stress resistance parameter, Temperature (° C.) 50” value is recorded as 0.48 ± 0.05; the “Stress resistance parameter, Osmotic pressure (mM) 10” value (“Stress resistance parameter … (mM) 10” below) is reported as 0.91 ± 0.23; the “Stress resistance parameter, pH 3.5” value came to 0.97 ± 0.21. In data set [2], the “Stress resistance parameter, pH 10” value was determined as 1.00 ± 0.27 and the “Stress resistance parameter, Temperature (° C.) 4” value was found to be 0.72 ± 0.06. In addition, in the data set with RSV F antibody (11A9), the “RSV F antibody (11A9) Epitope II (%) binding rate” value (“RSV F antibody … (%) binding rate” below) amounted to 90.1%.

B2: YK-RSV-013 (protein)
chain: QNITEEFYQSTCSAVSKGYLGALRTGWYTSVITIELSNIKENKCNGTDAKVKLIKQELDKYKNAVTDLQLLMQSTPACGSGSACASGVAVSKVLHLEGEVNKIKSALLSTNKAVVSLSNGVSVLTFKVLDLKNYIDKQLLPIVNKQSCSIPNIETVIEFQQKNNRLLEITREFSVNAGVTTPVSTYMLTNSELLSLINDMPITNDQKKLMSNNVQIVRQQSYSIMSIIKEEVLAYVVQLPLYGVIDTPCWKLHTSPLCTTNTKEGSNICLTRTDRGWYCDNAGSVSFFPQAETCKVQSNRVFCDTMNSRTLPSEVNLCNVDIFNPKYDCKIMTSKTDVSSSVITSLGAIVSCYGKTKCTASNKNRGIIKTFSNGCDYVSNKGVDTVSVGNTLYCVNKQEGQSLYVKGEPIINFYDPLVFPSSEFDASISQVNEKINQSLAFIRKSDELLHNVNAGKSTTNIMITTIIIVIIVILLSLIAVGLLLY
B2: in data set [1], the “RSV pre-F antibody (3C12) Epitope Φ (%) binding rate” value amounted to 89.3% and the “Φ/II (%)” value came to 94.7%. Moreover, in data set [2], the “Stress resistance parameter, Osmotic pressure (mM) 3000” value is 0.43 ± 0.04; the “Stress resistance parameter, Temperature (° C.) 50” value is given as 0.91 ± 0.23; the “Stress resistance parameter … (mM) 10” value came out at 0.59 ± 0.08; the “Stress resistance parameter, pH 3.5” value is 0.84 ± 0.19. In data set [2], the “Stress resistance parameter, pH 10” value is recorded as 0.92 ± 0.04 and the “Stress resistance parameter, Temperature (° C.) 4” value is 0.69 ± 0.11. Besides, in the data set on RSV F antibody (11A9), the “RSV F antibody … (%) binding rate” value is on record as 94.3%.

B3: YK-RSV-016 (protein)
chain: QNITEEFYCSTCSAVSKGYLGALRTGWYTSVILIELSNIKENKCNGTDAKVKLIKQELDKYKNAVTDLQLLMQSTPATGSGSAICSGVAVSKVLHLEGEVNKIKSALLSTNKAVVSLSNGVSVLTFKVLDLKNYIDKQLLPIVNKQSCSIPNIETVIEFQQKNNRLLEITREFSVNAGVTTPVSTYMLTNSELLSLINDMPITNDQKKLMSNNVQIVRQQSYSIMSIIKEEVLAYVVQLPLYGVIDTPCWKLHTSPLCTTNTKEGSNICLTRTDRGWYCDNAGSVSFFPQAETCKVQSNRVFCDTMNSRTLPSEVNLCNVDIFNPKYDCKIMTSKTDVSSSVITSLGAIVSCYGKTKCTASNKNRGIIKTFSNGCDYVSNKGVDTVSVGNTLYCVNKQEGQSLYVKCEPIINFYDPLVFPSSEFDASISQVNEKINQSLAFIRKSDELLHNVNAGKSTTNIMITTIIIVIIVILLSLIAVGLLLY
Regarding B3, in data set [1], the “RSV pre-F antibody (3C12) Epitope Φ (%) binding rate” value worked out at 79.8% and the “Φ/II (%)” value is given as 95.7%. Moreover, in data set [2], the “Stress resistance parameter, Osmotic pressure (mM) 3000” value was determined as 0.53 ± 0.07; the “Stress resistance parameter, Temperature (° C.) 50” value is 0.80 ± 0.01; the “Stress resistance parameter … (mM) 10” value came to 0.77 ± 0.08; the “Stress resistance parameter, pH 3.5” value was 0.91 ± 0.06. Moreover, in data set [2], the “Stress resistance parameter, pH 10” value is on record as 0.98 ± 0.14 and the “Stress resistance parameter, Temperature (° C.) 4” value was found to be 0.28 ± 0.05. Moreover, the “RSV F antibody … (%) binding rate” value in the data set on RSV F antibody (11A9) is reported as 83.4%.

B4: YK-RSV-008 (protein)
chain: QNITEEFYQSTCSAVSKGYLGALRTGWYTCVITIELSNIKENKCNGTDAKVKLIKQELDKYKNAVTDLQLLMQSTPATGSGSAIASGVAVSKVLHLEGEVNKIKSALLSTNKAVVSLSNGVSVCTIKVLDLKNYIDKQLLPIVNKQSCSIPNIETVIEFQQKNNRLLEITREFSVNAGVTTPVSTYMLTNSELLSLINDMPITNDQKKLMSNNVQIVRQQSYSIMSIIKEEVLAYVVQLPLYGVIDTPCWKLHTSPLCTTNTKEGSNICLTRTDRGWYCDNAGSVSFFPQAETCKVQSNRVFCDTMNSRTLPSEVNLCNVDIFNPKYDCKIMTSKTDVSSSVITSLGAIVSCYGKTKCTASNKNRGIIKTFSNGCDYVSNKGVDTVSVGNTLYYVNKQEGQSLYVKGEPIINFYDPLVFPSSEFDASISQVNEKINQSLAFIRKSDELLHNVNAGKSTTNIMITTIIIVIIVILLSLIAVGLLLY
In the case of B4, in data set [1], the “RSV pre-F antibody (3C12) Epitope Φ (%) binding rate” value amounted to 83.9% and the “Φ/II (%)” value came out at 90.7%. In data set [2], the “Stress resistance parameter, Osmotic pressure (mM) 3000” value turned out to be 0.33 ± 0.02; the “Stress resistance parameter, Temperature (° C.) 50” value worked out at 0.45 ± 0.08; the “Stress resistance parameter … (mM) 10” value was 0.81 ± 0.09; the “Stress resistance parameter, pH 3.5” value is given as 0.76 ± 0.21. Also, in data set [2], the “Stress resistance parameter, pH 10” value was 0.99 ± 0.19 and the “Stress resistance parameter, Temperature (° C.) 4” value turned out to be 0.65 ± 0.06. Also, the “RSV F antibody … (%) binding rate” value with RSV F antibody (11A9) was 92.5%.
